Molecular target: T1, extracellular protein domain (position 43-300) of human CD38 (Homo sapiens, UniProt P28907)
T1 construct: human CD38, extracellular domain, position 43-300; also called CD38 (extracellular domain); source: kindly provided by Dr. Hanna Tegel
Assay: SPR; ProteOn XPR36; scFv_(CD38) sortase-coupled to a G5-silk coating on bare gold outside the instrument; CD38 extracellular domain (printed: 200 mM) in PBS pH 7.4/0.01% Tween 20 flown at 25 uL/min, 30 min
Conditions: both partners purified

B1: scFv_(CD38)-silk (scFv_(CD38) sortase-coupled to the N-terminus of G5-FN-4RepCT), as silk coating (scFv, V domains shown)
VH: QVQLVQSGAEVKKPGSSVKVSCKPSGGTFRSYAISWVRQAPGQGLEWMGRIIVFLGKVNYAQRFQGRVTLTADKSTTTAYMELSSLRSEDTAVYYCTGEPGARDPDAFDIWGQGTMVTVSS
VL: DIQMTQSPSSLSASVGDRVTITCRASQGIRSWLAWYQQKPEKAPKSLIYAASSLQSGVPSRFSGSGSGTDFTLTISSLQPEDFATYYCQQYNNYPLTFGGGTKVEIK
notes: VH of the anti-CD38 scFv; 3xG4S linker, written out from the printed name; VL of the anti-CD38 scFv; what is left of the sortase recognition tag LPETGG after sortase A cleaves between threonine and glycine; the five N-terminal glycines of G5-silk, told in words; 4RepCT, a miniature form of the major ampullate spidroin 1 (MaSp 1) from Euprosthenops australis; The GG-His6 end is lost on coupling; …
B1: binds.

Source: publication PMC11840766 (ACS Omega, 2025)
